Values of other authors, collected in US20100068187A1, “TRANSCRIPTION FACTORS FOR DIFFERENTIATION OF ADULT HUMAN OLFACTORY PROGENITOR CELLS” (priority 2006, published 2010).

B1: BDNF: brain-derived neurotrophic factor (protein, UniProt P23560 19-247, looked up)
Neurotrophic factor BDNF …: APMKEANIRGQGGLAYPGVRTHGTLESVNGPKAGSRGLTSLADTFEHVIEELLDEDQKVRPNEENNKDADLYTSRVMLSSQVPLEPPLLFLLEEYKNYLDAANMSMRVRRHSDPARRGELSVCDSISEWVTAADKKTAVDMSGGTVTVLEKVPVSKGQLKQYFYETKCNPMGYTKEGCRGIDKRHWNSQCRTTQSYVRALTMDSKKRIGWRFIRIDTSCVCTLTIKRGR
B2: GDNF: glial-derived neurotrophic factor (protein, UniProt P39905 78-211, looked up)
Glial cell line-derived …: SPDKQMAVLPRRERNRQAAAANPENSRGKGRRGQRGKNRGCVLTAIHLNVTDLGLGYETKEELIFRYCSGSCDAAETTYDKILKNLSRNRRLVSDKVGQACCRPIAFDDDLSFLDDNLVYHILRKHSAKRCGCI

Test system: Human NSFCs
Conditions: incubated in the presence of neurotrophic factor

Molecule | neuronal differentiation of human NSFCs
B1 | refractory to neuronal differentiation
B2 | refractory to neuronal differentiation
